In publication PMC11099193, “Extracellular modulation of TREK-2 activity with nanobodies provides insight into the mechanisms of K2P channel regulation” (Nature Communications, 2024):
Read-outs that look alike come from different tables or passages of the source.

T1: human TREK-2 protein (residues Gly67 to Glu340) (human)
T1 chain: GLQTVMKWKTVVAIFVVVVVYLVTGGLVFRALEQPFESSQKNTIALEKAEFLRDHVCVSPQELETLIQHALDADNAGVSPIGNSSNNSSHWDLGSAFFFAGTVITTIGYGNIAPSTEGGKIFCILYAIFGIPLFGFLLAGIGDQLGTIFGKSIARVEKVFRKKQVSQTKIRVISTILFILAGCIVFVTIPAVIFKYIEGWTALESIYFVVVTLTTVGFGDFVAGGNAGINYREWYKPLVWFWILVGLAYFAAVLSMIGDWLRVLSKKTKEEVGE

T2: biotinylated TREK-2 (Homo sapiens, biotin (site not stated))
T2 construct: the buffer (OGNG/CHS) is that of the cryo-EM sample
T2 chain: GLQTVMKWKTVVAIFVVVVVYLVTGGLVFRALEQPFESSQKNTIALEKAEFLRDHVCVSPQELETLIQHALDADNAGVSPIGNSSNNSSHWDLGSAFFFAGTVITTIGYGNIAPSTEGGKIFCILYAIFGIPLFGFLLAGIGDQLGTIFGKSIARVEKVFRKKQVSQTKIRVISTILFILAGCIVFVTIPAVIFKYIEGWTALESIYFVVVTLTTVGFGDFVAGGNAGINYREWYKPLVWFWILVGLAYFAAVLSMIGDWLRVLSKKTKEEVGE


Experiments:
[1] = target: T1, human TREK-2 protein (residues Gly67 to …)
[2] = target: T3, TREK-2-mCherry fusion (Homo sapiens, UniProt P57789-4, strain); assay: immunostaining of cells or tissue; HEK293T cells transfected with K2P-mCherry, fixed with 4% formaldehyde, incubated with nanobody-mVenus for 2 h at 37 °C, washed, imaged for overlap of the two fluorescent signals
T3 construct: The legend says HEK-293, the methods HEK293T; also called TREK-2 tagged with the mCherry fluorescent protein; K2P-mCherry-pFAW; source: HEK293T, transfected (pFAW vector), fixed cells; not shown: mCherry, C-terminal, kept

[3] = target: T4, TREK-1 tagged with mCherry (Homo sapiens, UniProt O95069); assay: as above
T4 construct: human TREK-1 K2P channel, stop codon removed and mCherry fused in frame to the C-terminus by a (GS)2 linker; source: HEK293T, transfected (pFAW vector), fixed cells; not shown: mCherry, C-terminal, kept

[4] = target: T2, biotinylated TREK-2; assay: BLI; Octet Red; biotinylated TREK-2 (50 nM) loaded on streptavidin biosensors in 200 mM KCl, 20 mM HEPES pH 7.5, 0.12% OGNG, 0.012% CHS; nanobody dilutions 2 µM-7.8 nM (Nb61) and 1000 nM-3.9 nM (Nb6158); 600 s association, 600 s dissociation; details: both partners purified
[5] = target: T1, human TREK-2 protein (residues Gly67 to …); assay: SEC; each nanobody mixed with purified TREK-2 in a 2:1 molar ratio, Sepax SRT SEC-300 column in 200 mM KCl, 20 mM HEPES pH 7.5; shift of the 280 nm TREK-2 peak against TREK-2 alone; details: both partners purified

T3 sequence (P57789 whole entry, looked up, stated change not applied, the tested form may be a part): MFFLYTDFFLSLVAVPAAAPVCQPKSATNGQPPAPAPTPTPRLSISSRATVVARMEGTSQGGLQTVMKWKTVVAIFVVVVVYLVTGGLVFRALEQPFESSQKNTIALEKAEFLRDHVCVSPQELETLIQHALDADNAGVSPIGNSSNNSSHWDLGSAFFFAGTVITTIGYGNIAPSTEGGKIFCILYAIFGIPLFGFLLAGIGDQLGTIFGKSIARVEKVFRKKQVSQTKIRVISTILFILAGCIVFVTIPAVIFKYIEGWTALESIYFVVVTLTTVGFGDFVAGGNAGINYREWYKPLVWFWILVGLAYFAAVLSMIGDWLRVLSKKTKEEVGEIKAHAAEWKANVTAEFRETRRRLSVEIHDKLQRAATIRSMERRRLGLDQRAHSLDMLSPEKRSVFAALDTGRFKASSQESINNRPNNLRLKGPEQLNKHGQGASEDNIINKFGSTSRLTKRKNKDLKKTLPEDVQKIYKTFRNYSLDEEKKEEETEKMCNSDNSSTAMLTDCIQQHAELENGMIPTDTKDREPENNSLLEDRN
T4 sequence (O95069 whole entry, the tested form may be a part): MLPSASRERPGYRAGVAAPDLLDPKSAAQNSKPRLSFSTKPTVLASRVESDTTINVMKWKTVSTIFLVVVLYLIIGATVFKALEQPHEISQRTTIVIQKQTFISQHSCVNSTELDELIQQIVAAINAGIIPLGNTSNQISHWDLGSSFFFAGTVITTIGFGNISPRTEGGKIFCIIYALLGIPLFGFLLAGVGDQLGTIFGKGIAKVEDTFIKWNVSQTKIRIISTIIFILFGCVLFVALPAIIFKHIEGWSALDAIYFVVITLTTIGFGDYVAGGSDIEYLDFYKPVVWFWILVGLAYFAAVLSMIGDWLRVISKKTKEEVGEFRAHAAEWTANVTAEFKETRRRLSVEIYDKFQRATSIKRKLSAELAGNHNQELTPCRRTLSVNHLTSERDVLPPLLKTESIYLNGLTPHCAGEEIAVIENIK

Binder | binding result [1] | other results
CA10772 (VHH) VHH: QVQLVESGGGLVQPGGSLRLSCAASGFTFSAYAMRWHRQAPGKGLEWVSSIDHSGAWPNYADSVKGRFTISRDNAKNTLYLQMDSLKPEDTAVYYCSKAGFRGQGTQVTVSS | binds | –
CA10759 (VHH) VHH: QVQLVESGGGLVQAGGSLRLSCAASGLTFSRYNMGWFRQAPGKEREFVAAINRYGGTMYATDSVKGRFTISRDNVKSTVDLQMNRLKPEDTAVYYCAADQQYMSRLEADFGSWGQGTQVTVSS | binds | –
CA10760 (VHH) VHH: QVQLVESGGGLVQAGGSLRLSCAASGLTFSAYNMGWFRQAPGKEREFVAAINRYGGTLYTTDSVKGRFTISRDNVKSTVDLQMNRLEPEDTAVYYCAADQQYMSRLEADFGSWGQGTQVTVSS | binds | –
CA10766 (VHH) VHH: QVQLVESGGGLVQAGGSLRLSCAASGRSFSTYGIGWFRQAPGRERDLVASISWSGGGTYYADSVKGRSTISRDNAKNMVDLQMNSLKPEDTAVYYCAARRLGGVGRIVQYDYWGQGTQVTVSS | binds | –
CA10765 (VHH) VHH: QVQLVESGGGLVQAGGSLRLSCAASGFTFDDYAIGWFRQAPGKEREGVSCISSSDGSTYYADSVKGRFTISSDNAKNTVYLQMNSLKPEDTAVYYCAADPYLYCSDYGDSGTLSYYGVDYWGKGTQVTVSS | binds | –
Nb-Binder-57 fused to mVenus (VHH, mVenus joined by a (GS)2 linker; also called CA10757; Nb57; source: cloned into the pFAW vector; not shown: mVenus, C-terminal, kept) VHH: QVQLVESGGGLVQAGDSLRLSCASSGRALSNVAMGWFRQAPGKEREIVAAISWSGDNTYYADSGRGRFTISRDNAKNTVYLQMNNLRPEDTAVYYCAADGRGNLRRGTAGRYVDYWGQGTQVTVSS | – | binding result [2]: binds; binding result [3]: no binding
CA10763 (VHH) VHH: QVQLVESGGGLVQAGGSLRLSCAASGLTFSGYPMGWFRQAPGKEREFVATISRSGNNMHYADSVKGRFTISRDNAKNTVSLQMNSLKPEDTAVYYCAADSTTLRRGVASVEYWGQGTQVTVSS | binds | –
CA10755 (VHH) VHH: QVQLVESGGGLVQAGGSLRLSCAASRSIVTINAMSWHRQAPGKQRELVASITKRGRTNIADSVKGRFAISWDRNTVYLQMNSLKPEDTAVYYCAALTDIPMNTYWGQGTQVTVSS | binds | –
CA10756 (VHH) VHH: QVQLVESGGGLVQAGGSLRLSCAASRSFVTINAISWHRQAPGKQRELVASITKRGRTNIADSVKGRFAISWDKNTVYLQMNSLKPEDTANYYCAALTDIPVNTYWGQGTQVTVSS | binds | –
CA10778 (VHH) VHH: QVQLVESGGGLVQAGGSLRLSCAASRGIFTITAMSWHRQAPGKQRELVASITRRGRTNIADSVKDRFAISWDKNTVYLQMNSLKPEETAVYYCAALTDAPMNTYWGQGTQVTVSS | binds | –
CA10764 (VHH) VHH: QVQLVESGGGLAQAGGSLRLSCAASGRTFSNYAMGWFRQAPGKEREFVATISSSGGTIRYADSVKGRFTISRDNAKNTVALQMNVLKPEDTAVYYCAQSKYGRAWSDRYEYDRWGQGTQVTVSS | binds | –
CA10773 (VHH) VHH: QVQLVESGGGLVQPGGSLRLSCAASGFTFSSYPMSWARQAPGKGLEWVSAINRGGSSTNYADSVKGRFTISRDNAKNTLYLQMDSLKPEDTAVYYCFKGGTRGQGTQVTVSS | binds | –
CA10774 (VHH) VHH: QVQLVESGGGLVQPGGTLRLSCAASGFTFSSKPMSWARQAPGKGLEWVSAISRDGSSTNYADSVKGRFTISRNNAWNTLYLQMDNLKPEDTAVYYCFMGGTRGQGTQVTVSS | binds | –
CA10770 (VHH) VHH: QVQLVESGGGLVQAGGSLRLSCAASGRSFSSYRMAWFRQAPGLEREFVAAISRSGSNTDYADSVKGRFTISRDNAKNTVYLQMNSLKPDDTAVYFCAANTSPLLGSVATGQEYYIYWAQGTQVTVSS | binds | –
Nb-Inhibitor-61 (VHH, also called CA10761; Nb61; source: E. coli WK6, periplasm, purified (Ni-NTA)) VHH: QVQLVESGGGLVQAGDSLRVSCAGSGFTFTSYGMGWFRQAPGKEREFVASINWNSNTAYADSVRGRFTISRDNAESMMYLQMNSLKPEDTAVYYCAATRAYSKPRVDSRHYDYWGQGTQVTVSS | – | Kd [4]: 1100 nM
CA10779 (VHH) VHH: QVQLVESGGGAVQAGGSLRLSCASSDHSFTRYTIAWFRQAPGKEREFVAALTWNGGITNYADSVKGRFTISRENGKNTAYLQMDALESEDTAVYYCAAVFGPASLTREDMYEYWGQGTQVTVSS | binds | –
CA10777 (VHH) VHH: QVQLVESGGGLVQPGGSLRLSCAASGLIARLIDWGWYRQAPGKQRELVAAITAGGRTNYTDSVKGRFTISRDDPKNTVYLQMSALKPEDTAVYYCCVDFRSYAGKQYHYCGQGTQVTVSS | binds | –
CA10769 (VHH) VHH: QVQLVESGGGLVQAGDSLRLSCAASGRTSSSDVMGWFRQAPGKGREFVAETSWRGGKTAYADSVKGRFAISRDNAKNTVYLQMNNLKPEDTAVYYCAVLHADSSTYAYWGQGTRVTVSS | binds | –
Nb-Binder-58 fused to the mVenus fluorescent protein (VHH, as the VHH of m9 (Nb58); mVenus joined by a (GS)2 linker; also called Nb58 fused to mVenus; source: cloned into the pFAW vector; not shown: mVenus, C-terminal, kept) VHH: QVQLVESGGGLVQAGGSLRLSCAASGRAGSGYAMGWFRQAPGKEREIVGAISWSGDNTYYADSVRGRVTISRDYAQNTVYLQMNSLKPEDTAVYYCAADGRGNLRRGTAGRYVEYWGQGTQVTVSS | – | binding result [2]: binds; binding result [3]: no binding
Nb-Binder-58 (VHH, also called CA10758; Nb58; source: E. coli WK6, periplasm, purified (Ni-NTA)) VHH: QVQLVESGGGLVQAGGSLRLSCAASGRAGSGYAMGWFRQAPGKEREIVGAISWSGDNTYYADSVRGRVTISRDYAQNTVYLQMNSLKPEDTAVYYCAADGRGNLRRGTAGRYVEYWGQGTQVTVSS | – | binding result [5]: binds
CA10754 (VHH) VHH: QVQLVESGGGLVQAGGSLRLSCAASGRTFSTYAMSWFRQAPGKEREFVARIRWSTTRTSSTYYADSVKGRFTISGDNAKNTVYLQMDSLKPEDTAVYYCAAVINPYSSAYEYWGQGTQVTVSS | binds | –
CA10780 (VHH) VHH: QVQLVESGGGLVQAGGSLRLSCAASGRTFSSYAMGWFRQAPGKEREFVAAISWSGGSTYYADSVKGRFTVSRDNAKNTVYLQMNSLKPEDTAVYYCAADSISTAQAMRVNERDYGMDYWGKGTQVTVSS | binds | –
CA10771 (VHH) VHH: QVQLVESGGGLVQAGGSLRLSCAASGRTASLYAMDWFRQAPGKEREFVARLILSTFGTNYADSVKGRFTFSRDNAKNTVYLQMNNLKPEDTGVYFCAAHSLTSTNWDQGTQVTVSS | binds | –
CA10752 (VHH) VHH: QVQLVESGGGLVQAGGSLRLSCAASGRTSSTYAMSWFRQPPGKEREFVARIRWSGSNTYYADSVKGRFTISGDNAKNTVYLQMNSLKAEDTAVYYCAAVIDPYSSAYEYWGQGTQVTVSS | binds | –
CA10753 (VHH) VHH: QVQLVESGGGLVQAGGSLRLSCAASGRTFSTYAMSWFRQAPGKEREFVARIRWSGTSTAYADSVKGRFFISGDNAKNTVYLQMNSLKPEDTAVYYCAAVINPYSSAYEYWGQGTQVTVSS | binds | –
